Reference: publication PMC10842378

Columns and labels:
[1] = target: FLAG-AP-DHX15 wild type (human) (UniProt O43143); assay: proximity labelling
[2] = target: FLAG-AP-DHX15 wild type (human) (UniProt O43143); assay: split reporter

Sequence of FLAG-AP-DHX15 wild type (human) (O43143 whole entry): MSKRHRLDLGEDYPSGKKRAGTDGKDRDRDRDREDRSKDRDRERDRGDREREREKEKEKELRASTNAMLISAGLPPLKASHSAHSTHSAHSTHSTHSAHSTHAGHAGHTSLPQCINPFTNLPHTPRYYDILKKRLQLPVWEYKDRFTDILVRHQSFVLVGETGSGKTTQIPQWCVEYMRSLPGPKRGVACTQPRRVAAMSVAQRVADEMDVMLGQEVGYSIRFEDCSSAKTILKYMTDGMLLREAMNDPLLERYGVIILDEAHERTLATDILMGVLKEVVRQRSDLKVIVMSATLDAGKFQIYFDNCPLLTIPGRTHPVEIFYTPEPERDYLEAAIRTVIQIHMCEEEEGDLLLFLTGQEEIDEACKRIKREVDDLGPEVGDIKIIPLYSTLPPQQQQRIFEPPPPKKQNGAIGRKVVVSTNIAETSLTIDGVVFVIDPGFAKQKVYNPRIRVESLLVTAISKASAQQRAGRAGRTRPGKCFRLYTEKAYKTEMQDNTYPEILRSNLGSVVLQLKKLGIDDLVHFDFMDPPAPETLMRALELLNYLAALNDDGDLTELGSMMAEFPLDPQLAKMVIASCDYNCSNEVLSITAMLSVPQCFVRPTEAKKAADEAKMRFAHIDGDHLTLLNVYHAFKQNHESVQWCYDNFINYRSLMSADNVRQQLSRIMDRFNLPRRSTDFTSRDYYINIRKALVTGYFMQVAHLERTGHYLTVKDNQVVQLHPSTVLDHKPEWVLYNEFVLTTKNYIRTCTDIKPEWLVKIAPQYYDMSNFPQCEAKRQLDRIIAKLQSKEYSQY

Row | fold increase of HA-SUGP1-EX pull-down [1] [fold] | fold increase of total biotinylated protein against FL SUGP1 [2] [fold] | Substance
1 | 1.9 |  | HA-SUGP1-EX with the G-patch domain deleted (ΔGp) (from UniProt Q8IWZ8 1-645) (natural protein)
2 |  | 3.2 | SUGP1 G-patch domain alone fused to an SV40 NLS (Gp-nls), HA-EX construct (domain or fragment)
